According to publication PMC5585171:

Molecular target: Medicago truncatula L-histidinol dehydrogenase (Medicago truncatula)
Assay: SEC; HiLoad Superdex 200 16/60; 25 mM Hepes-NaOH pH 7.5, 100 mM KCl, 50 mM NaCl, 1 mM TCEP; data not shown

**Q.** For “Medicago truncatula L-histidinol dehydrogenase (enzyme)”, which stoichiometry N is on record?
**A.** 2
